Assay [1] deals with T1, tumor necrosis factor receptor 2 (TNFR2) expressed on cells (human, UniProt P20333 23-461).
T1 construct: whole, on cells; also called human TNFR2; TNFRSF1B
T1 sequence (looked up): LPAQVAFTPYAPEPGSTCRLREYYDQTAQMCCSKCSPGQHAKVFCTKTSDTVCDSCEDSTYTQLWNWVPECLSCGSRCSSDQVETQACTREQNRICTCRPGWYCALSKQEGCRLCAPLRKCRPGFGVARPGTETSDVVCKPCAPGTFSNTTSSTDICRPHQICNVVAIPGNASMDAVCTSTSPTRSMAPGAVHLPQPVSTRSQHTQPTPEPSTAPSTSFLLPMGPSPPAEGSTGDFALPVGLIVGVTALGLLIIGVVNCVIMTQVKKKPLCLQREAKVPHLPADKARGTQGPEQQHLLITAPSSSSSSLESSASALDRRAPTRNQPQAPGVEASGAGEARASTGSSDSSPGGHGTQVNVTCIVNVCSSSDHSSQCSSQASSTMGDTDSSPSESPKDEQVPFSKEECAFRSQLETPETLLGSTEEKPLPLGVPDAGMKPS
The experiment in a line: flow cytometry on TNFR2-expressing Ramos-Blue cells, anti-human IgG-PE. How it is done:
Subsequently, binding affinity of each antibody was evaluated using Ramos-Blue reporter cells expressing TNFR2. Each antibody was added at concentrations of 0.01, 0.1, 1, 10, 100, 1000, 10000, and 100000 ng/mL to the TNFR2-Ramos-Blue cells used in a reporter assay, and the cells were incubated for 1 hour on ice. After centrifugation for 5 minutes at 1200 rpm, the supernatant was removed. After washing once with a FACS buffer, anti-human IgG-PE was added to each well. The samples were left standing for 30 minutes away from light on ice. After centrifugation for 5 minutes at 1200 rpm, the supernatant was removed. After washing once with a FACS buffer, fluorescence was analyzed with a flow cytometer (FCM). The mean value of fluorescence intensity was used as a value corresponding to the amount of binding. Experiments were independently conducted twice under the same condition.

The target in assay [2] is T2, TNFR2 monomeric antigen (UniProt P20333 23-257, limits assumed).
T2 construct: extracellular domain
T2 sequence (looked up): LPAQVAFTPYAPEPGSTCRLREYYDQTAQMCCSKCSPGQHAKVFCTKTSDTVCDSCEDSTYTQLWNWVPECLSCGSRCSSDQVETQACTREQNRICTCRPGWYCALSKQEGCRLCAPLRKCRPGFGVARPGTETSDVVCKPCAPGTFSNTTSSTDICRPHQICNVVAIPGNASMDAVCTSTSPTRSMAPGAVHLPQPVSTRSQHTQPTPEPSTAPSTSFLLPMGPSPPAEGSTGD
The assay can be described thus: SPR (BIAcore T200), antibody captured with human antibody capture kit, monomeric antigen as analyte. How it is done:
Binding kinetics analysis and evaluation of each antibody to a monomeric antigen and dimeric antigen were conducted through surface plasmon resonance (SPR) using BIAcore T200 system (GE Healthcare). Monomeric and dimeric antigens were prepared. The affinity of each antibody to the monomeric and dimeric antigens was evaluated to study the presence/absence of intramolecular bridging activity. The SPR technology is based on measuring the index of refraction near the surface of a gold coated biosensor chip. A change in the index of refraction indicates a change in mass on the surface due to an interaction between an immobilized antibody and a monomeric or dimeric antigen infused into the solution. The mass increases when a molecule binds to an antibody immobilized on the surface, whereas the mass decreases when an analyte dissociates from an immobilized antibody. Analysis of a biparatopic antibody and the original monoclonal antibody by SPR can not only evaluate the performance of each antibody, but also see the effect of multivalent bond.
The monomeric and dimeric antigens were prepared as shown in the schematic diagram of FIG. 8. First, an etanercept (Pfizer), which is an Fc fusion protein of a TNFR2 extracellular region, was prepared, and a TNFR2 antigen molecule was obtained by enzymatic degradation and reductive re-oxidation reaction. An antibody was immobilized on a sensor chip using a human antibody capture kit according to the protocol by using a BIAcore T200 system (GE Healthcare). The interaction was analyzed by using the two types of antigens described above as analytes.
For orientation: Surface plasmon resonance follows binding to a sensor surface in real time, without labels.

Positions count from the first letter of the chain named.

B1: Bp109-45 epitope region-bridging biparatopic antibody (bispecific antibody, V domains shown)
VH 1: QVQLKESGPGLVAPSQSLSITCTVSGFSLTVYGVNWVRQPPGKGLEWLGMIWGDGSTAYNSALKSRLTITKDNSKTQVFLKMNSLQTDDTARYYCARDGRRYALDYWGQGTSVTVSS
VL 1: DIVLTQSPTSLAVSLGQRATISCRASESVDSYGDSFLHWYQQKPGQPPILLIYRASNLDSGIPARFSGSGSRTDFTLTINPVEADDVATYYCQQSNEDPYTFGGGTKLEINR
VH 2: EVQLQQSGPEMEKPGASVKISCKASGYSFTGYNMNWVKQSIGKSLEWIGKIDPYYGGTDYNLRFKDKATLTVDKSSSTAYMHLSRLTSEDSAVYYCAREPNYGSNDWYFDVWGAGTTVTVSS
VL 2: DIQVTQTTSSLSASLGDRVTISCRASQDIDNYLNWYQQRPDGTVKLLIYYTSILHSGVPSRFSGSGSRTDFSLTISSLEEEDFATYFCQQGNTLPWTFGGGTKLEFKR
notes: N side Fab joined by split-intein trans-splicing to hinge and hole Fc; C side VH-CH1-hinge-knob Fc plus light chain; Human IgG1 constant regions
B1: the binding result in assay [1] and in assay [2] was “binds” each time.

B2: Bp96-92 epitope region-bridging biparatopic antibody (bispecific antibody, V domains shown)
VH 1: EVQLQQSGAELVKPGASVKLSCTPSGFNIKDTYMHWVKQRPEQGLEWIGRIDPANGYTEYDPKFQDKATITADTSSNTAYLQLSSLTSEDTAVYYCADTQLYYWGQGTTLTVSS
VL 1: QIVLTQSPAIMSASLGERVTMTCTASSSVSSTYLHWYQQKPGSSPKLWIYSTSNLASGVPARFSGSGSGTSYSLTISNMEAEDAATYYCHQYHRSPLTFGAGTKLELKR
VH 2: KVQLQQSGAELVKPGASVKLSCKASGYTFTESIIHWVKQRSGQGLEWIGWFYPGSDNINYNEKFKDKATLTADKSSSTVYMELTRLTSEDSAVYFCASHEGPYVYFDYWGQGTTLTVSS
VL 2: DIVMTQSHKFMSTSVGDRVSITCKASQDVSTAVAWYQQKPGQSPKLLIYWTSTRHTGVPDRFTGSGSGTDYTLTISSVQAEDLALYYCQHHYSTPYTFGGGTKLEIQR
notes: as for B1
As to B2, the binding result in assay [1] and in assay [2] was “binds” throughout.

B3: Bp45-94 epitope region-bridging biparatopic antibody (bispecific antibody, V domains shown)
VH 1: B1 VH 2
VL 1: B1 VL 2
VH 2: QVQLQQSGAELARPGTSVKLSCKASGYTFTSYWMQWVKQTPGQGLEWIGAIYPGDGDSRYIQKFKGKATLTADKSSSTAYMQLSSLASEDSAVYYCARDGNYYAMDYWGQGTSVTVSS
VL 2: B2 VL 1 with M21I, N78S, L97P
notes: as for B1
Regarding B3, the binding result in assay [1] and in assay [2] was “binds” each time.

B4: Bp109-94 epitope region-bridging biparatopic antibody (bispecific antibody, V domains shown)
VH 1: B1 VH 1
VL 1: B1 VL 1
VH 2: B3 VH 2
VL 2: B2 VL 1 with M21I, N78S, L97P
notes: as for B1
Consider B4, for which the binding result in assay [1] and in assay [2] was “binds” in each case.

B5: Bp109-96 epitope region-bridging biparatopic antibody (bispecific antibody, V domains shown)
VH 1: B1 VH 1
VL 1: B1 VL 1
VH 2: B2 VH 1
VL 2: B2 VL 1
notes: as for B1
B5: the binding result in assay [1] and in assay [2] was “binds” each time.

B6: Bp45-92 epitope region-bridging biparatopic antibody (bispecific antibody, V domains shown)
VH 1: B1 VH 2
VL 1: B1 VL 2
VH 2: B2 VH 2
VL 2: B2 VL 2
notes: The N side Fab (VH-CH1 plus light chain) is joined by Cfa DnaE split-intein trans-splicing to the hinge and hole Fc; The C side is VH-CH1-hinge-knob Fc plus light chain; Human IgG1 constant regions
In the case of B6, the binding result in assay [1] is listed as “binds”.

(Values after patent US20230192877A1 (NATIONAL INSTITUTES OF BIOMEDICAL INOVATION HEALTH AND …, published 2023).)
